Reference: article PMC3870192

How the values were obtained:
Assay in all cases: purified protein
Format in all cases: biochemical, Plenodomus lingam
Details in all cases: 1 mM [1-14C]DMAPP, 100 mM Tris-HCl pH 8.0, 2% glycerol, 30 °C
[1] = tested on: Cc1cccc2c(C[C@H](N)C(=O)O)c[nH]c12
[2] = tested on: COc1cccc2[nH]cc(C[C@H](N)C(=O)O)c12
[3] = tested on: N[C@@H](Cc1c[nH]c2ccccc12)C(=O)O

SirD (tyrosine O-prenyltransferase; dimethylallyltyrosine synthase) (Plenodomus lingam)
Km [1]: 2000 ± 400 µM
kcat/Km [1]: 6.5 M⁻¹ s⁻¹
Km [2]: 5100 ± 2000 µM
kcat/Km [2]: 2.5 M⁻¹ s⁻¹
Km [3]: 370 ± 60 µM
kcat [3]: 0.095 ± 0.002 s⁻¹
kcat/Km [3]: 260 M⁻¹ s⁻¹
